Data: patent US20200332017A1
Where “and” joins values, the source holds several entries; their conditions need not be identical. Equal entries are not always repeated. Where two headings read alike, the source gives them in different places.

Assays:
[1] = biological target: human CD40-Fc protein (amino acid residue 21-193 of SEQ ID NO: 67 linked to N-terminus of amino acid residue 99-330 of SEQ ID NO.: 24) (human); experiment: capture ELISA; antibody captured, biotin-labeled human CD40-Fc in solution
[2] = biological target: human CD40-Fc protein (amino acid residue 21-193 of SEQ ID NO: 67 linked to N-terminus of amino acid residue 99-330 of SEQ ID NO.: 24) (human); experiment: capture ELISA, biotin human CD40-Fc; mAb at 0 ng/mL (blank)
[3] = biological target: cynomolgus monkey CD40-his protein (Acro biosystems, Cat # CD0-052H6) (cynomolgus monkey) (UniProt G7PG38); experiment: SPR, Biacore; cynomolgus CD40-his
[4] = biological target: human CD40-Fc protein (amino acid residue 21-193 of SEQ ID NO: 67 linked to N-terminus of amino acid residue 99-330 of SEQ ID NO.: 24) (human); experiment: capture ELISA, biotin human CD40-Fc; mAb at 3.2 ng/mL
[5] = biological target: human CD40-Fc protein (amino acid residue 21-193 of SEQ ID NO: 67 linked to N-terminus of amino acid residue 99-330 of SEQ ID NO.: 24) (human); experiment: capture ELISA; antibody captured, biotin-labeled human CD40-Fc in solution; remark: listed apart in the source
[6] = biological target: full length human CD40 (uniprot # P25942-1) on the membrane of 293T-CD40 cells (human) (UniProt P25942); experiment: flow cytometry on 293T-CD40 cells
[7] = biological target: human CD40-Fc protein (amino acid residue 21-193 of SEQ ID NO: 67 linked to N-terminus of amino acid residue 99-330 of SEQ ID NO.: 24) (human); experiment: capture ELISA (antibody captured on coated anti-IgG F(ab')2, biotin-labeled human CD40-Fc in solution, streptavidin-HRP, OD(450-630))
[8] = biological target: full length human CD40 (uniprot # P25942-1) on the membrane of 293T-CD40 cells (human) (UniProt P25942); experiment: flow cytometry on 293T-CD40 cells; remark: listed apart in the source
[9] = biological target: human CD40-Fc protein (amino acid residue 21-193 of SEQ ID NO: 67 linked to N-terminus of amino acid residue 99-330 of SEQ ID NO.: 24) (human); experiment: capture ELISA, biotin human CD40-Fc; mAb at 10000 ng/mL
[10] = biological target: human CD40-Fc protein (amino acid residue 21-193 of SEQ ID NO: 67 linked to N-terminus of amino acid residue 99-330 of SEQ ID NO.: 24) (human); experiment: capture ELISA, biotin human CD40-Fc; mAb at 2000 ng/mL
[11] = biological target: full length human CD40 (uniprot # P25942-1) on the membrane of 293T-CD40 cells (human) (UniProt P25942); experiment: flow cytometry on 293T-CD40 cells, PE-labeled secondary antibody, MFI
[12] = biological target: human CD40-Fc protein (amino acid residue 21-193 of SEQ ID NO: 67 linked to N-terminus of amino acid residue 99-330 of SEQ ID NO.: 24) (human); experiment: capture ELISA, biotin human CD40-Fc; mAb at 16 ng/mL
[13] = biological target: human CD40-Fc protein (amino acid residue 21-193 of SEQ ID NO: 67 linked to N-terminus of amino acid residue 99-330 of SEQ ID NO.: 24) (human); experiment: capture ELISA; antibody captured, biotin-labeled human CD40-Fc in solution; remark: listed apart in the source
[14] = biological target: full length human CD40 (uniprot # P25942-1) on the membrane of 293T-CD40 cells (human) (UniProt P25942); experiment: cell-based or functional assay
[15] = biological target: Human CD40-his protein (Acro biosystems, Cat # CD0-H5228) (human) (UniProt P25942); experiment: SPR, Biacore; human CD40-his
[16] = biological target: human CD40-Fc protein (amino acid residue 21-193 of SEQ ID NO: 67 linked to N-terminus of amino acid residue 99-330 of SEQ ID NO.: 24) (human); experiment: capture ELISA; antibody captured, biotin-labeled human CD40-Fc in solution; remark: listed apart in the source
[17] = biological target: Human CD40-his protein (Acro biosystems, Cat # CD0-H5228) (human) (UniProt P25942); experiment: SPR, Biacore T200; antibody captured, antigen flowed; 1:1 Langmuir fit
[18] = biological target: human CD40-Fc protein (amino acid residue 21-193 of SEQ ID NO: 67 linked to N-terminus of amino acid residue 99-330 of SEQ ID NO.: 24) (human); experiment: capture ELISA, biotin human CD40-Fc; mAb at 400 ng/mL
[19] = biological target: human CD40-Fc protein (amino acid residue 21-193 of SEQ ID NO: 67 linked to N-terminus of amino acid residue 99-330 of SEQ ID NO.: 24) (human); experiment: ligand blocking ELISA: human CD40-Fc coated, antibody titrated, then biotin-labeled human CD40L-his (blocked ligand), streptavidin-HRP, OD(450-630)
[20] = biological target: human CD40-Fc protein (amino acid residue 21-193 of SEQ ID NO: 67 linked to N-terminus of amino acid residue 99-330 of SEQ ID NO.: 24) (human); experiment: capture ELISA, biotin human CD40-Fc; mAb at 0.64 ng/mL
[21] = biological target: human CD40-Fc protein (amino acid residue 21-193 of SEQ ID NO: 67 linked to N-terminus of amino acid residue 99-330 of SEQ ID NO.: 24) (human); experiment: capture ELISA, biotin human CD40-Fc; mAb at 80 ng/mL
[22] = biological target: Human CD40-his protein (Acro biosystems, Cat # CD0-H5228) (human) (UniProt P25942); experiment: SPR, Biacore; antibody captured, human CD40-his flowed
[23] = biological target: full length human CD40 (uniprot # P25942-1) on the membrane of 293T-CD40 cells (human) (UniProt P25942); experiment: flow cytometry on 293T-CD40 cells, PE-labeled secondary antibody, MFI; remark: listed apart in the source
[24] = biological target: human CD40-Fc protein (amino acid residue 21-193 of SEQ ID NO: 67 linked to N-terminus of amino acid residue 99-330 of SEQ ID NO.: 24) (human); experiment: capture ELISA (antibody captured on coated goat anti-human IgG F(ab')2, biotin-labeled human CD40-Fc in solution, streptavidin-HRP, OD(450-630))
[25] = biological target: full length human CD40 (uniprot # P25942-1) on the membrane of 293T-CD40 cells (human) (UniProt P25942); experiment: flow cytometry on 293T-CD40 cells, PE-labeled secondary antibody, MFI; remark: listed apart in the source
[26] = biological target: human CD40-Fc protein (amino acid residue 21-193 of SEQ ID NO: 67 linked to N-terminus of amino acid residue 99-330 of SEQ ID NO.: 24) (human); experiment: capture ELISA (antibody captured on coated anti-IgG F(ab')2, biotin-labeled human CD40-Fc in solution, streptavidin-HRP, OD(450-630)); remark: listed apart in the source

full length human CD40 (uniprot # P25942-1) on the membrane of 293T-CD40 cells (human), sequence (P25942 21-277 limits assumed): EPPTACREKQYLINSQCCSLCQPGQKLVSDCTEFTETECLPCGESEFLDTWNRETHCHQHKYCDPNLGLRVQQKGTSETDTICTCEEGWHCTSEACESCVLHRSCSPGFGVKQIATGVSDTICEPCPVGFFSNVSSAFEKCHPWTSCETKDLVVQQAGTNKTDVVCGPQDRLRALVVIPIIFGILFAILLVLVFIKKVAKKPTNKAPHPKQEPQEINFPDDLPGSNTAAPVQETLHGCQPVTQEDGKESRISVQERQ
BM2 (Selicrelumab, Abgenix) (antibody), sequence (VH): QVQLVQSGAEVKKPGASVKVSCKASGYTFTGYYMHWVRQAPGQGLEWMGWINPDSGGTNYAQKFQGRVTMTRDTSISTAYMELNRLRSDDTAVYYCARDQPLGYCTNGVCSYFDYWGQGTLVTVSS
BM2 (Selicrelumab, Abgenix) (antibody), sequence (VL): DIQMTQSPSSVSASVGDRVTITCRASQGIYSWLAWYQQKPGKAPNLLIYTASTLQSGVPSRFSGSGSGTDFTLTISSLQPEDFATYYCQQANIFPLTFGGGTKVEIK
Human CD40-his protein (Acro biosystems, Cat # CD0-H5228) (human), sequence (P25942 21-193 limits assumed): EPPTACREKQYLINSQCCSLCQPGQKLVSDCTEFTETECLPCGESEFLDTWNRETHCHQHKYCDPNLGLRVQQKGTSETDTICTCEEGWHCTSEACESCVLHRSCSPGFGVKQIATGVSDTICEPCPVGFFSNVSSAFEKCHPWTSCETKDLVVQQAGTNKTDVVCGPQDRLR
human CD40-Fc protein (amino acid residue 21-193 of SEQ ID NO: 67 linked to N-terminus of amino acid residue 99-330 of SEQ ID NO.: 24) (human), sequence (chain, as listed by the source): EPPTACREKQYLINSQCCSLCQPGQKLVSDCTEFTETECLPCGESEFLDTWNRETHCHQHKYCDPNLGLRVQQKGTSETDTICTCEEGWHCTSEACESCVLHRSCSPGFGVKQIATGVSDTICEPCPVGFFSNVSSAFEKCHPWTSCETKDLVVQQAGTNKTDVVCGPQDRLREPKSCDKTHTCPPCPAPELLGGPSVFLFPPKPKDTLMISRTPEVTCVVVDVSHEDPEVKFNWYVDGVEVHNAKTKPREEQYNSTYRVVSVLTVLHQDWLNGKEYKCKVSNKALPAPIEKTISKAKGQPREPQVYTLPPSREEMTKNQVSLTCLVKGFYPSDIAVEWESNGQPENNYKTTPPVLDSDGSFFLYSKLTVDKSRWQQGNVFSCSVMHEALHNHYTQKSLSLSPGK
BM1 (Dacetuzumab, Genentech Inc) (antibody), sequence (VH): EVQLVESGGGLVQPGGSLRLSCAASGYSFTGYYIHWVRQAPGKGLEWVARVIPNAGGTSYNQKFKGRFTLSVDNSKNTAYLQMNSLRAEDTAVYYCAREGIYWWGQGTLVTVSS
BM1 (Dacetuzumab, Genentech Inc) (antibody), sequence (VL): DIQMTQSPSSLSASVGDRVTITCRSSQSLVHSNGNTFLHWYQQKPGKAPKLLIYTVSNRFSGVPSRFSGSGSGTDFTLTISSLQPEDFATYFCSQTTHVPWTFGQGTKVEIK
cynomolgus monkey CD40-his protein (Acro biosystems, Cat # CD0-052H6) (cynomolgus monkey), sequence (G7PG38 entry or part of it limits assumed): as the sequence (P25942 21-193 limits assumed) above, with G43S, H56R, R70Q, W89L, A95S, L101P, S106L, H142R, L172Q counted along it

| Substance | EC50 [1] [nM] | absorbance at 450 nm [2] [OD450] | Kd [3] [nM] | absorbance at 450 nm [4] [OD450] | EC50 [5] [ng/mL] | EC50 [6] | EC50 (read off the curve) [7] [nM] | EC50 [8] [nM] | absorbance at 450 nm [9] [OD450] | absorbance at 450 nm [10] [OD450] | absorbance at 450 nm [12] [OD450] | EC50 [13] [nM] | Cell-based Reporter assay (EC50, nM) [14] | cell based functional assay (EC50, nM) [14] [nM] | Kd [15] [nM] | EC50 [16] [nM] | Kd [17] [nM] | absorbance at 450 nm [18] [OD450] | absorbance at 450 nm [20] [OD450] | absorbance at 450 nm [21] [OD450] | also measured |
| --- | --- | --- | --- | --- | --- | --- | --- | --- | --- | --- | --- | --- | --- | --- | --- | --- | --- | --- | --- | --- | --- |
| BM1 (Dacetuzumab, Genentech Inc) (antibody) | 0.335 | 0.028 | 5.85 | 0.077 | 0.501 | 0.975 nM and 0.886 nM | 0.4 | 1.3 | 1.99 | 1.87 | 0.291 | 0.33 | 4.39 nM and 4.81 nM | 4.16 | 14.1 | 0.434 | 11.1 | 1.83 | 0.036 | 1.02 | EC50 (read off the curve) [11]: 0.8 nM; IC50 (read off the curve) [19]: 1000 ng/mL; Kd [22]: 26.3 nM; EC50 (read off the curve) [23]: 200 ng/mL; EC50 (read off the curve) [24]: 50 ng/mL; EC50 (read off the curve) [25]: 1 nM |
| BM2 (Selicrelumab, Abgenix) (antibody) | 0.716 | 0.029 | 6.03 | 0.052 | 0.886 | 2.01 nM and 8.58 nM | 1 | 2.11 | 1.85 | 1.63 | 0.178 | 0.72 | 7.01 nM and 4.9 nM | 2.89 | 12.2 | 1.25 | 5.12 | 1.42 | 0.028 | 0.669 | EC50 (read off the curve) [26]: 100 ng/mL; Kd [22]: 15.4 nM; EC50 (read off the curve) [23]: 300 ng/mL; EC50 (read off the curve) [24]: 100 ng/mL |
| Mouse IgG-NC (mouse control Ab) (antibody) |  | 0.125 |  | 0.099 |  |  |  |  | 0.044 | 0.047 | 0.109 |  |  |  |  |  |  | 0.05 | 0.096 | 0.087 |  |
| hIgG (human immunoglobulin (pH4), for intravenous injection, Hualan Biological Engineering Inc.) (antibody) |  | 0.026 |  | 0.025 |  |  |  |  | 0.023 | 0.018 | 0.03 |  |  |  |  |  |  | 0.019 | 0.026 | 0.027 |  |
